Data published in patent US20070142277.

Biological target: T1, fluorogenic APP-based peptide MCA-SEVNLDAEFK(DNP)-CONH2
T1 chain: SEVNLDAEFK

B1: BACE455 (protein)
chain: ETDEEPEEPGRRGSFVEMVDNLRGKSGQGYYVEMTVGSPPQTLNILVDTGSSNFAVGAAPHPFLHRYYQRQLSSTYRDLRKGVYVPYTQGKWEGELGTDLVSIPHGPNVTVRANIAAITESDKFFINGSNWEGILGLAYAEIARIIGGIDHSLYTGSLWYTPIRREWYYEVIIVRVEINGQDLKMDCKEYNYDKSIVDSGTTNLRLPKKVFEAAVKSIKAASSTEKFPDGFWLGEQLVCWQAGTTPWNIFPVISLYLMGEVTNQSFRITILPQQYLRPVEDVATSQDDCYKFAISQSSTGTVMGAVIMEGFYVVFDRARKRIGFAVSACHVHDEFRTAAVEGPFVTLDMEDCGYNIPQTDESTLMTIAYVMAAICALFMLPLCLMVCQWRCLRCLRQQHDDFADDISLLK
For B1, the BACE activity over time: mean fluorescence signal of Substrate V cleavage by HEK293 membrane extract, 15 min (mean fluorescence signal) was 125, the BACE activity over time: mean fluorescence signal of Substrate V cleavage by HEK293 membrane extract, 60 min (mean fluorescence signal) was 195 and the BACE activity over time: mean fluorescence signal of Substrate V cleavage by HEK293 membrane extract, 120 min (mean fluorescence signal) was 228. The BACE activity over time: mean fluorescence signal of Substrate V cleavage by HEK293 membrane extract, 240 min (mean fluorescence signal) was 239.
